Test results reported in PMC4997581.

B1: HCMV protein kinase pUL97, Flag-tagged (pUL97-Flag), P16788 1-707 (natural protein)
chain: MSSALRSRARSASLGTTTQGWDPPPLRRPSRARRRQWMREAAQAAAQAAVQAAQAAAAQVAQAHVDENEVVDLMADEAGGGVTTLTTLSSVSTTTVLGHATFSACVRSDVMRDGEKEDAASDKENLRRPVVPSTSSRGSAASGDGYHGLRCRETSAMWSFEYDRDGDVTSVRRALFTGGSDPSDSVSGVRGGRKRPLRPPLVSLARTPLCRRRVGGVDAVLEENDVELRAESQDSAVASGPGRIPQPLSGSSGEESATAVEADSTSHDDVHCTCSNDQIITTSIRGLTCDPRMFLRLTHPELCELSISYLLVYVPKEDDFCHKICYAVDMSDESYRLGQGSFGEVWPLDRYRVVKVARKHSETVLTVWMSGLIRTRAAGEQQQPPSLVGTGVHRGLLTATGCCLLHNVTVHRRFHTDMFHHDQWKLACIDSYRRAFCTLADAIKFLNHQCRVCHFDITPMNVLIDVNPHNPSEIVRAALCDYSLSEPYPDYNERCVAVFQETGTARRIPNCSHRLRECYHPAFRPMPLQKLLICDPHARFPVAGLRRYCMSELSALGNVLGFCLMRLLDRRGLDEVRMGTEALLFKHAGAACRALENGKLTHCSDACLLILAAQMSYGACLLGEHGAALVSHTLRFVEAKMSSCRVRAFRRFYHECSQTMLHEYVRKNVERLLATSDGLYLYNAFRRTTSIICEEDLDGDCRQLFPE
B2: pUL97 stably expressed in transduced HFFs, P16788 1-707 (natural protein)
chain: B1 chain

Target: Cyclin B1 (human (endogenous in 293T and HFF)), P14635
Sequence (P14635 whole entry): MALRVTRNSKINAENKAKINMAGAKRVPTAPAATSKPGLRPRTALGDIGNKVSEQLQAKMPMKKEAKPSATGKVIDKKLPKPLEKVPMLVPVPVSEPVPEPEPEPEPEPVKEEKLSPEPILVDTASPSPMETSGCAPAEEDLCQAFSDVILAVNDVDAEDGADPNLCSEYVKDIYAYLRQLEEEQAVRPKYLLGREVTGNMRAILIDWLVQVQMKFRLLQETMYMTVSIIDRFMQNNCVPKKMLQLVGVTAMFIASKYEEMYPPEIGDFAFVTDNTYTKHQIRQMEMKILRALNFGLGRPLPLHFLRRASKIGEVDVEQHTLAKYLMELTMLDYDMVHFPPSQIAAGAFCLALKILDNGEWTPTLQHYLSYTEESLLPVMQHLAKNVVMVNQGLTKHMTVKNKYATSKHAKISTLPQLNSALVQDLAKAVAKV
Assay: co-IP
Conditions: remark: other sources report otherwise

Binder	pUL97 co-IP Western blot signal relative to cyclin B1
B1	100%
B2	100%
